Experiment [1] deals with human insulin receptor extracellular domain (HIR ECD) (human) (UniProt P06213). Put plainly: ELISA, HIR ECD plated.
For experiment [2] the target is unchanged. Put plainly: ELISA, HIR ECD plated, detection with biotinylated goat anti-human IgG.
The target in experiment [3] is T1, human insulin receptor extracellular domain (HIR ECD) (human, UniProt P06213 28-956, limits assumed).
T1 construct: extracellular domain; Purified on a wheat germ agglutinin column from serum free medium of CHO cells permanently transfected with the HIR ECD (Coloma et al. 2000)
Put plainly: ELISA, HIR ECD plated, same methods as for FIG. 11. The procedure: (§1) The affinity of the fusion protein for the HIR extracellular domain (ECD) was determined with an ELISA. CHO cells permanently transfected with the HIR ECD were grown in serum free media (SFM), and the HIR ECD was purified with a wheat germ agglutinin affinity column, as previously described in Coloma et al. (2000) Pharm Res, 17:266-274. The HIR ECD was plated on Nunc-Maxisorb 96 well dishes and the binding of the HIR Ab, or the HIR Ab-IDS fusion protein, to the HIR ECD was detected with a biotinylated goat anti-human IgG (H+L) secondary antibody, followed by avidin and biotinylated peroxidase (Vector Labs, Burlingame, CA). The concentration of either HIR Ab or HIR Ab-IDS fusion protein that gave 50% maximal binding was determined with a non-linear regression analysis.

The target in experiment [4] is T1, human insulin receptor extracellular …. Put plainly: ELISA, HIR ECD plated on Nunc-Maxisorb wells, detection with biotinylated goat anti-human IgG. The procedure:
as §1

In turn, “GUSB-HIR Ab fusion protein (GUSB fused to the amino terminus of the HIR Ab heavy chain) (from UniProt P08236 23-633)” came in with a reduction in receptor binding affinity (against the HIR Ab) in experiment [1] of 95%. The half-maximal effective concentration (EC50) in experiment [2] turned out to be 4.8 nM.

B1: chimeric HIRMAb (chimeric monoclonal antibody to the human insulin receptor) (antibody, human IgG1, kappa, V domains shown)
VH: QVQLQQSGPELVKPGALVKISCKASGYTFTNYDIHWVKQRPGQGLEWIGWIYPGDGSTKYNEKFKGKATLTADKSSSTAYMHLSSLTSEKSAVYFCAREWAYWGQGTLVTVSA
VL: DIQMTQSPSSLSASLGERVSLTCRASQDIGGNLYWLQQGPDGTIKRLIYATSSLDSGVPKRFSGSRSGSDYSLTISSLESEDFVDYYCLQYSSSPWTFGGGTKMEIKR
notes: Human IgG1 constant region, kappa light chain; also called HIR Ab; chimeric HIR Ab
As to B1, the EC50 turned out to be 0.41 nM in experiment [3] and 0.32 nM in experiment [4].

Values taken from patent US20180251535A1 (ARMAGEN, published 2018).
